Reference: patent publication US20180185504A1 (Regeneron, published 2018)

T1: mouse PRLR with an HA tag on HEK293 cells (mouse, UniProt Q08501 20-608)
T1 construct: whole, on cells; also called HEK293/mPRLR; rodent PRLR; not shown: HA tag
T1 sequence (looked up): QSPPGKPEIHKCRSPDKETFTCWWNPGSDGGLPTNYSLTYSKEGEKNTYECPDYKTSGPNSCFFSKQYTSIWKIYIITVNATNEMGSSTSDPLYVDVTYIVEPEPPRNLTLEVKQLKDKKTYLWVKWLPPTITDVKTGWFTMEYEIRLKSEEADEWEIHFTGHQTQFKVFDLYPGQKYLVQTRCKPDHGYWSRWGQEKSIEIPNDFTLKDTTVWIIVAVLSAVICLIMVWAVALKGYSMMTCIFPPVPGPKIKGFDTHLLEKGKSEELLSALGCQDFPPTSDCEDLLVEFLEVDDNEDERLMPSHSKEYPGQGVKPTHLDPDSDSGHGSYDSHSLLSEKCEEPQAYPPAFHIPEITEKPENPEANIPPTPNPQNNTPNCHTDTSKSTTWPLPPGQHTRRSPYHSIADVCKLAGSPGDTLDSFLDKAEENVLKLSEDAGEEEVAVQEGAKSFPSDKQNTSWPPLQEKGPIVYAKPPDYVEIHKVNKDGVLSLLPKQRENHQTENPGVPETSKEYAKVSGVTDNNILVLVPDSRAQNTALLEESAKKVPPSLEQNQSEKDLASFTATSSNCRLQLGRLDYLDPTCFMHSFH

B1: H1H6783P (antibody, human IgG1, V domains shown)
VH: QVQLQQSGPGLVKPSQTLSLTCAISGDSVSSNTFAWNWIRQSPSRGLEWLGRTYYRSKWYIDYAESVKSRITITPDTSKNQFSLQLNSVTPEDTALYYCAGGYTYAPRGAFDIWGQGTMVTVSS
VL: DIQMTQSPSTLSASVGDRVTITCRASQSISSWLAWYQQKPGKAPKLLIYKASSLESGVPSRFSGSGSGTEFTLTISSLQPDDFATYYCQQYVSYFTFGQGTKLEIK
B2: H1H6774P (antibody, human IgG1, V domains shown)
VH: EVQLVESGGGLAQPGGSLRLSCVASGFTFSTYWMSWVRQAPGKGLDWVGNIKQDGSEQNYVDSVRGRFTISRDNAKNSLFLQMNSLRAEDTGVYYCATLLTKGDYWGQGTLVTVSS
VL: DIQMTQSPSSLSASVGDSVTITCRASQDISNYLDWFQQKPGKAPKSLIYAASILQGGVPSRFSGSGYGTDFTLTISSLQPEDFATYYCRQYKTYPFTFGPGTKVDIK
B3: H1H6765P (antibody, human IgG1, V domains shown)
VH: EVQLVESGGGVVRPGGSLRLSCVGSGFSFDDHGMNWVRQGPGKGLEWVSGFNWNGGSTNYAESVKGRFTISRDNARNSLFLQMNSLRAEDTALYYCVRGRSGWFNDAFDVWGPGTMVTVSS
VL: EIVLTQSPGTLSLSPGERATLSCRASQTINSNYLAWYRQKPGQTPRLLIYGTSSRATGIPDRFSGSGSGTDFSLTISRLEPEDFAVFYCQQYAGLPTFGPGTKVDIK
B4: H1H6953N (antibody, human IgG1, V domains shown)
VH: EVQLLESGGGLVQPGGTLRLSCAASGFTFSAYAMSWVRQAPGKGLEWVSSINVRAGDTYYADSVKGRFTISRDNSKNTLFLLMNSLRAEDTAAYYCAKARYSSNWGFDFWGQGTLVTVSS
VL: DIVMTQSPDSLTVSLGARTTINCQSSQTILHSSNNHNYLAWYQQKPGLPPKLLIYWSSTRESGVPDRFSGSGSGTDFTLTISSLQAEDVAIYYCQQYSNTPYTFGQGTKLEIN
notes: Tested with human IgG1 Fc (H1H)
B5: H1H6959N2 (antibody, human IgG1, V domains shown)
VH: EVQLVESGGGLVQPGRSLRLSCAASGFTFDDYAMHWVRQAPGKGLEWVSGISWHSGIIGYADSVKGRFTISRDNAKNSLYLQMNSLRTEDAALYYCAKIGSYFYFDSWGQGTLVTVSS
VL: EIVLTQSPGTLSLSPGERATLSCRASQSVSSNYLAWYQQKPGQAPRLLIYGASSRATGIPDRFSGSGSGTDFTLTISRLEPEDFAVYYCQQFGSSGYTFGQGTNLEIK
notes: as for B4
B6: H1H6803P (antibody, human IgG1, V domains shown)
VH: EVQLVESGGGVVRPGGSLRLSCAASGFKFDDYGMTWVRHVPGKGLEWVSGINWNGGRTGYTDSVKGRFTISRDNAKNSLYLQMNSLRAEDTALYHCAGARRDAFDIWGQGTMVTVSS
VL: DIQMTQSPSSLSASIGDRVTITCRASQNIIKYLNWYQQNAGKAPKLLIYTASSLQSGVPSRFSGSGSGTDFTLTISSLQPEDFATYYCQQSSSSPYTFGQGTKLEIK
B7: H1H6966N (antibody, human IgG1, V domains shown)
VH: QVQLVQSGAEVQKPGASVKVSCKVSGYTLTALSIHWVRQAPGKGLEWMGNFDPGDGETIHAQKFQGRVTMTGDTSTDTAYMELSSLRSEDTAVYYCVGVTFDYWGQGTLVTVSS
VL: EIVMTQSPATLSVSPGERATLSCRASQSVASNLAWYQQKPGQAPRLLLYGASTRATGIPARFSGSGSGTEFTLTISSLQSEDFALYYCQHYNNWPLTFGGGTKVEIK
notes: as for B4
B8: H1H6967N (antibody, human IgG1, V domains shown)
VH: EVQLVESGGDLVHPGRSLRLSCAASGFPFDEYAMHWVRQVPGKGLEWVSGISWSNNNIGYADSVKGRFTISRDNAKNSLYLQMNSLRPEDTAFYYCAKSGIFDSWGQGTLVTVSS
VL: EIVMTQSPATLSVSPGERATLSCRASQSVSRDLAWYQQKPGQAPRLLIHGASTRATGIPARFSGSGSGAEFTLIISSLQSEDFAVYYCQQYNNWPLTFGGGTKVEIK
notes: as for B4
B9: H1H6797P (antibody, human IgG1, V domains shown)
VH: EVQLVESGGGLVQPGGSLRLSCIVSGFTFSGSWMSWVRQLPGKGLEWVANIKEDGSDSYYVDSVEGRFTISRDNAKSSLYLQMNSLRVDDTAVYFCARARTVPLHYWGQGTLVTVSS
VL: DIQMTQSPSTLSASVGDRVTITCRASQSINIWLAWYQQKPGKAPKLLIYRASYLESGVPSSFAGGGSGTEFTLTISSLQPDDFGTYYCQHYNSYPFTFGQGTKLEIK
B10: H1H6782P (antibody, human IgG1, V domains shown)
VH: EVQLVESGGGLVQPGRSLRLSCAASGFTFDDYAMHWVRQAPGKGLEWVSGIIWNSGHIGYGDSVKGRFTISRDNAKKSLYLQMNSLRAEDTALYYCARDSGRYQSYFDYWGQGTLVTVSS
VL: DIQMTQSPSTLSASVGDRVTITCRASHIISSWLAWYQQKPGKAPKVLIFKASSLESGVPSRFSGSGSGTEFTLTISSLQPDDFATYYCQQYNTYSRTFGQGTKVEIK
B11: H1H6790P (antibody, human IgG1, V domains shown)
VH: EVQLVESGGGLVQPGGSLRLSCAASGFTFSSYAMTWVRQAPGKGLEWVSAITGSVGNTYYADSVKGRFTISRDNSKNTLYLQMNSLGAEDTAEYYCAKGAGMTTNWYLDLWGRGTLVTVSS
VL: DIVMTQSPDSLAVSLGARATINCKSSQSVLYSSNNQNYLTWYQQKPGQPPKLLIKWASTRESGVPDRFSGSGSGTDFTLTISSLQAEDVAVYYCQQYASSPYTFGQGTKLEIK
B12: H1H6781P (antibody, human IgG1, V domains shown)
VH: EVQLVESGGDLVQPGESLRLSCTASGFTFNSYEMNWVRQAPGKGLEWVSYISSSGGTKYYVDSVKGRFTISRDNAKKSLYLQMNSLRADDTALYYCARLNGVDVFDIWGQGTMVTVSS
VL: DIQMTQSPSSLSASVGDRVTITCRASQDIFNYLAWFQQKPGKVPELLISAASTLQSGVPSRFSGSGSGTYFTLTISSLQPEDIATYYCQRYNSAPLTFGGGTKVEIK
B13: H1H6785P (antibody, human IgG1, V domains shown)
VH: EVQLVESGGGLVQPGGSLRLSCAASGFTFSSYEMNWVRQAPGKGLEWISYISSRGGTIYYADSIKGRFTIYRDNARNSLYLQMNSLRAEDTAIYYCARLSGVDIFDIWGQGTMVTVSS
VL: DIQMTQSPSSLSASVGDRVTITCRASQGISNYLAWYQQKPGKVPKLLIYFASTLQSGVPSRFSGGGSGTDFTLTISSLQPEDVATYYCQRYNSAPLTFGGGTKVEIK
B14: H1H6975N (antibody, human IgG1, V domains shown)
VH: EVHLVESGGGLVQPGGSLRLSCAASGFTFSSYEMNWVRQTPGKGLEWISHISSRSVIIYYADSVKGRFTISRDNAKNSLFLQMNSLRAEDTAVYFCAGITIFGIPEYWGQGTLVTVSS
VL: EIVLTQSPATLSLSPGERATLSCRASQSVSSYFAWYQQKPGQAPRLLIYDASSRATGIPTRFSGSGSGTDFTLTISSLEPEDFAVYYCQQRSSWPITFGQGTRLEIK
notes: Tested with human IgG1 Fc (H1H); also called H1H6975P
B15: H1H6960N (antibody, human IgG1, V domains shown)
VH: EVQLVESGGGLVKPGGSLRLSCAASGITFSSYSMNWVRQAPGKGLEWVSSISTRSSLIHYADSVKGRFTISRDNAKNSLYLQMNSLRDEDTAVYYCARWDAAAAFDYWGQGTLVIVSS
VL: DIQLTQSPSFLSASVGDRVTITCWASQGISSYLAWYQQKPGKAPKLLIYVASTLQSGVPSRFSGSGSGTEFTLTISSLQPEDFATYFCQQLNSYPLTFGGGTKVEIK
notes: as for B4
B16: H1H6976N (antibody, human IgG1, V domains shown)
VH: EVQLLESGGGFVQPGGSLRLSCAASGFTFSSYAMSWVRQAPGKGLEWVSIISSNGRYTYYADSVKGRFTISRDNSKNTLYLQMNSLRAEDTAVYYCATVTGDWFDPWGQGTLVTVSS
VL: DIQLTQSPSFLSASVGDRVTITCWASQDIDISLAWYQQKPGKAPKLLIYAASTLQSGVPSKFSGSGSGTDFTLTISSLQPEDFSTYYCQQLNSYPITFGQGTRLDIK
notes: as for B4
B17: H1H6800P (antibody, human IgG1, V domains shown)
VH: EVQLVESGGGLVQPGRSLRLSCAASGFTFDGYAMHWVRQGPGKGLEWVSGISWYSDTLGYADSVKGRFTISRDNAKNSLYLQMNSLRTEDTAFYYCAKISSSGWAFDYWGQGTLVTVSS
VL: EIVLTQSPGTLSLSPGERATLSCRASHSVSSAYLAWYQQKPGQTPRLLIYGTSSRATGIPDRFSGSGSGTDFTLTISRLEPEDFAVYYCQQYGSSPLFTFGPGTKVDIK
B18: H1H6807P (antibody, V domains shown)
VH: QVQLVESGGGVVQPGRSLRLSCAASGFTFSDYNMHWVRQAPGKGLEWVAVIWYDGSNKHYADSVKGRFTISRDNSKNTLYLQMNSLRAEDTAVYYCARDGFTIFGMVLDYWGQGTLVTVSS
VL: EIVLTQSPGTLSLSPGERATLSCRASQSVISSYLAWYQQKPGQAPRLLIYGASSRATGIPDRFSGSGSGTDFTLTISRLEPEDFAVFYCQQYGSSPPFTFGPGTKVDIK

Target: T1, mouse PRLR with an HA tag on HEK293 …
Assay: FACS on HEK293/mPRLR cells

Question: Does B1 bind?
Answer: Result: no binding

Question: Does B2 bind?
Answer: Result: no binding

Question: Does B3 bind?
Answer: Result: no binding

Question: Does B4 bind?
Answer: Result: no binding

Question: Does B5 bind?
Answer: Result: no binding

Question: Does B6 bind?
Answer: Result: no binding

Question: Does B7 bind?
Answer: Result: no binding

Question: Does B8 bind?
Answer: Result: no binding

Question: Does B9 bind?
Answer: Result: no binding

Question: Does B10 bind?
Answer: Result: no binding

Question: Does B11 bind?
Answer: Result: no binding

Question: Does B12 bind?
Answer: Result: no binding

Question: Does B13 bind?
Answer: Result: no binding

Question: Does B14 bind?
Answer: Result: no binding

Question: Does B15 bind?
Answer: Result: no binding

Question: Does B16 bind?
Answer: Result: no binding

Question: Does B17 bind?
Answer: Result: no binding

Question: Does B18 bind?
Answer: Result: no binding
